Key:
[1] = target: Hypothetical protein/Heat shock 70 kDa protein 5 (glucose-regulated protein, 78 kDa = GRP78 = BiP = HSPA5), as identified in eluates (human) (UniProt P11021); experiment: BiP-Sepharose pull-down, RA patient IV synovial fluid (B6), MS of urea eluate; BiP may stem from the column
[2] = target: FLJ00385 protein (Fragment), immunoglobulin heavy constant mu (human) (UniProt P01871); experiment: BiP-Sepharose pull-down, RA synovial fluid sample 2B, 1 M NaCl eluate, MS; may be indirect
[3] = target: Histidine-rich glycoprotein precursor (human) (UniProt P04196); experiment: as above
[4] = target: Neutrophil defensin 1 precursor (human) (UniProt P59665); experiment: as above
[5] = target: Heat shock 70 kDa protein 1L (human) (UniProt P34931); experiment: as above
[6] = target: Hypothetical protein/Heat shock 70 kDa protein 5 (glucose-regulated protein, 78 kDa = GRP78 = BiP = HSPA5), as identified in eluates (human) (UniProt P11021); experiment: BiP-Sepharose pull-down, RA synovial fluid sample 6B, 1 M NaCl eluate, MS; BiP may stem from the column
[7] = target: Hypothetical protein/Heat shock 70 kDa protein 5 (glucose-regulated protein, 78 kDa = GRP78 = BiP = HSPA5), as identified in eluates (human) (UniProt P11021); experiment: BiP-Sepharose pull-down, RA synovial fluid sample 2B, 1 M NaCl eluate, MS; BiP may stem from the column
[8] = target: Hypothetical protein/Heat shock 70 kDa protein 5 (glucose-regulated protein, 78 kDa = GRP78 = BiP = HSPA5), as identified in eluates (human) (UniProt P11021); experiment: BiP-Sepharose pull-down, RA synovial fluid sample 3B, 1 M NaCl eluate, MS; BiP may stem from the column
[9] = target: Immunoglobulin J chain, Immunoglobulin J polypeptide (human) (UniProt P01591); experiment: BiP-Sepharose pull-down, RA patient III serum (B4), MS of urea eluate; may be indirect
[10] = target: Immunoglobulin lambda variable 3-25/V2-17 protein (Fragment) (human) (UniProt P01717); experiment: as above
[11] = target: CD5 antigen-like precursor (SP-alpha, CT-2, IgM-associated peptide)/CD5 molecule-like (human) (UniProt O43866); experiment: as above
[12] = target: Isoform 1 of Plectin-1 (human) (UniProt Q15149); experiment: as above
[13] = target: Vitronectin precursor (Serum-spreading factor/S-protein) (human) (UniProt P04004); experiment: as above
[14] = target: Alpha-1-antitrypsin precursor/Serpin peptidase inhibitor, clade A, member 1 (human) (UniProt P01009); experiment: as above
[15] = target: Complement component 4 binding protein, alpha, C4b-binding protein alpha chain precursor (C4bp) (human) (UniProt P04003); experiment: as above
[16] = target: Dapper homolog 1 (hDPR1) (human) (UniProt Q9NYF0); experiment: as above
[17] = target: 187 kDa protein/Complement component 3 (human) (UniProt P01024); experiment: as above
[18] = target: Phosphatase and actin regulator 4 isoform 1/Hypothetical protein DKFZp686L07205 (human) (UniProt Q8IZ21); experiment: as above
[19] = target: Hypothetical protein DKFZp686I04196 (Fragment)/Immunoglobulin heavy constant gamma 2 (G2m marker)/Ig gamma-2 chain C region (human) [IgG part: P01859]; experiment: as above
[20] = target: GCN1 general control of amino-acid synthesis 1-like 1 (yeast)/GCN1-like protein 1 (HsGCN1) (human) (UniProt Q92616); experiment: as above
[21] = target: IGLC1 protein (immunoglobulin lambda C1)/immunoglobulin lambda chain/immunoglobulin C1 segment protein (fragment) (human) (UniProt P0CG04); experiment: as above
[22] = target: V1-3 protein (Fragment)/immunoglobulin lambda variable 2-11 (human) (UniProt P01706); experiment: as above
[23] = target: Ig lambda chain V-III region SH (human) (UniProt P01714); experiment: as above
[24] = target: Hypothetical protein/Heat shock 70 kDa protein 5 (glucose-regulated protein, 78 kDa = GRP78 = BiP = HSPA5), as identified in eluates (human) (UniProt P11021); experiment: BiP-Sepharose pull-down, RA synovial fluid sample 4B, 1 M NaCl eluate, MS; BiP may stem from the column
[25] = target: Vitronectin precursor (Serum-spreading factor/S-protein) (human) (UniProt P04004); experiment: BiP-Sepharose pull-down, RA synovial fluid sample 6B, 1 M NaCl eluate, MS; may be indirect
[26] = target: Heat shock 70 kDa protein 1L (human) (UniProt P34931); experiment: as above
[27] = target: Immunoglobulin heavy constant gamma 3 (G3m marker)/Ig gamma-3 chain C region (human) (UniProt P01860); experiment: BiP-Sepharose pull-down, AL amyloidosis patient II plasma (B3), MS of urea eluate; may be indirect

Chain of Hypothetical protein/Heat shock 70 kDa protein 5 (glucose-regulated protein, 78 kDa = GRP78 = BiP = HSPA5), as identified in eluates (human) (P11021 19-654 limits assumed): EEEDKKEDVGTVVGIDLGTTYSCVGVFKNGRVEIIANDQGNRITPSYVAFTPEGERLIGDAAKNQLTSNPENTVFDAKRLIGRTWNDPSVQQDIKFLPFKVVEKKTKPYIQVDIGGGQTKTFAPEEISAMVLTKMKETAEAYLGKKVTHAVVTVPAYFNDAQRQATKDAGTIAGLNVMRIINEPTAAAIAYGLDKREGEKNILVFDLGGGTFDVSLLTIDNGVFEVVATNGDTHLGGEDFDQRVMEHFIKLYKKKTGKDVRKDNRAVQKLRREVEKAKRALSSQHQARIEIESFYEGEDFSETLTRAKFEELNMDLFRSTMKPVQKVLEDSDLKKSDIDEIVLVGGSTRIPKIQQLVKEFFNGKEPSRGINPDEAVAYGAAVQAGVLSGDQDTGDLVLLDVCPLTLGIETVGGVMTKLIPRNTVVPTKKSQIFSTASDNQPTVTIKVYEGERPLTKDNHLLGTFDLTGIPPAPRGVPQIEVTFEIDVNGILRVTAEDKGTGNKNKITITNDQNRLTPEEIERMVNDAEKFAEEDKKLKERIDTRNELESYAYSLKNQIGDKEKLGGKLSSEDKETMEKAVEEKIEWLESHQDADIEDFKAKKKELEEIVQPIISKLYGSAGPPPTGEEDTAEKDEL
Chain of Vitronectin precursor (Serum-spreading factor/S-protein) (human) (P04004 20-478 limits assumed): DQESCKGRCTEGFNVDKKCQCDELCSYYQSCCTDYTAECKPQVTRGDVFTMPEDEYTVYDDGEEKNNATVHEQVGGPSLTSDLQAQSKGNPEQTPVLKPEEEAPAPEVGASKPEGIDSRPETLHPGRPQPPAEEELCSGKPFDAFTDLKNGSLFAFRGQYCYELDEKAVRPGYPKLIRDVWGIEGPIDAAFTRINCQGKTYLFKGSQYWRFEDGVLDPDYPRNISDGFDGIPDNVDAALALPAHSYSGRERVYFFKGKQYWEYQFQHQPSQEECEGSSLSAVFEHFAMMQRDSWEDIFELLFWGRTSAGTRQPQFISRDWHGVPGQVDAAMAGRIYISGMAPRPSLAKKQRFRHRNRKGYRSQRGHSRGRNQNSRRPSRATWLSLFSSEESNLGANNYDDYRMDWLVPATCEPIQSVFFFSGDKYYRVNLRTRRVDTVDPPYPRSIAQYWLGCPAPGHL
Chain of Heat shock 70 kDa protein 1L (human) (P34931 whole entry): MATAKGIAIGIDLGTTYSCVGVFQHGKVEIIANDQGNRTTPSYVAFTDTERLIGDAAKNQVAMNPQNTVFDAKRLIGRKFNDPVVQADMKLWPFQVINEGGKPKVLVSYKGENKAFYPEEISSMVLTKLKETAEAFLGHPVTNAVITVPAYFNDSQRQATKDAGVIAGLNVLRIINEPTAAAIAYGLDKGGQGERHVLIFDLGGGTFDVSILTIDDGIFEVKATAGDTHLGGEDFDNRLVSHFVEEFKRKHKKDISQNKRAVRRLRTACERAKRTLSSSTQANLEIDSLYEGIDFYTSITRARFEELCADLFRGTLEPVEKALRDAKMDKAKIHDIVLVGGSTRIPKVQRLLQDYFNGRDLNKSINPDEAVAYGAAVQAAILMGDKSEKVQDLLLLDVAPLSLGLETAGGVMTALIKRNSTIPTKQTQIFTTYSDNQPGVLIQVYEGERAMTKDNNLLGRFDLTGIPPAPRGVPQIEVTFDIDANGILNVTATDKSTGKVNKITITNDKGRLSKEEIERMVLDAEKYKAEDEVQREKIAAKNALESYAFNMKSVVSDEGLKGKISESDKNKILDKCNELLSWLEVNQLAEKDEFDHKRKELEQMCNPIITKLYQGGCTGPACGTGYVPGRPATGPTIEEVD
Chain of GCN1 general control of amino-acid synthesis 1-like 1 (yeast)/GCN1-like protein 1 (HsGCN1) (human) (Q92616 2-2671 limits assumed): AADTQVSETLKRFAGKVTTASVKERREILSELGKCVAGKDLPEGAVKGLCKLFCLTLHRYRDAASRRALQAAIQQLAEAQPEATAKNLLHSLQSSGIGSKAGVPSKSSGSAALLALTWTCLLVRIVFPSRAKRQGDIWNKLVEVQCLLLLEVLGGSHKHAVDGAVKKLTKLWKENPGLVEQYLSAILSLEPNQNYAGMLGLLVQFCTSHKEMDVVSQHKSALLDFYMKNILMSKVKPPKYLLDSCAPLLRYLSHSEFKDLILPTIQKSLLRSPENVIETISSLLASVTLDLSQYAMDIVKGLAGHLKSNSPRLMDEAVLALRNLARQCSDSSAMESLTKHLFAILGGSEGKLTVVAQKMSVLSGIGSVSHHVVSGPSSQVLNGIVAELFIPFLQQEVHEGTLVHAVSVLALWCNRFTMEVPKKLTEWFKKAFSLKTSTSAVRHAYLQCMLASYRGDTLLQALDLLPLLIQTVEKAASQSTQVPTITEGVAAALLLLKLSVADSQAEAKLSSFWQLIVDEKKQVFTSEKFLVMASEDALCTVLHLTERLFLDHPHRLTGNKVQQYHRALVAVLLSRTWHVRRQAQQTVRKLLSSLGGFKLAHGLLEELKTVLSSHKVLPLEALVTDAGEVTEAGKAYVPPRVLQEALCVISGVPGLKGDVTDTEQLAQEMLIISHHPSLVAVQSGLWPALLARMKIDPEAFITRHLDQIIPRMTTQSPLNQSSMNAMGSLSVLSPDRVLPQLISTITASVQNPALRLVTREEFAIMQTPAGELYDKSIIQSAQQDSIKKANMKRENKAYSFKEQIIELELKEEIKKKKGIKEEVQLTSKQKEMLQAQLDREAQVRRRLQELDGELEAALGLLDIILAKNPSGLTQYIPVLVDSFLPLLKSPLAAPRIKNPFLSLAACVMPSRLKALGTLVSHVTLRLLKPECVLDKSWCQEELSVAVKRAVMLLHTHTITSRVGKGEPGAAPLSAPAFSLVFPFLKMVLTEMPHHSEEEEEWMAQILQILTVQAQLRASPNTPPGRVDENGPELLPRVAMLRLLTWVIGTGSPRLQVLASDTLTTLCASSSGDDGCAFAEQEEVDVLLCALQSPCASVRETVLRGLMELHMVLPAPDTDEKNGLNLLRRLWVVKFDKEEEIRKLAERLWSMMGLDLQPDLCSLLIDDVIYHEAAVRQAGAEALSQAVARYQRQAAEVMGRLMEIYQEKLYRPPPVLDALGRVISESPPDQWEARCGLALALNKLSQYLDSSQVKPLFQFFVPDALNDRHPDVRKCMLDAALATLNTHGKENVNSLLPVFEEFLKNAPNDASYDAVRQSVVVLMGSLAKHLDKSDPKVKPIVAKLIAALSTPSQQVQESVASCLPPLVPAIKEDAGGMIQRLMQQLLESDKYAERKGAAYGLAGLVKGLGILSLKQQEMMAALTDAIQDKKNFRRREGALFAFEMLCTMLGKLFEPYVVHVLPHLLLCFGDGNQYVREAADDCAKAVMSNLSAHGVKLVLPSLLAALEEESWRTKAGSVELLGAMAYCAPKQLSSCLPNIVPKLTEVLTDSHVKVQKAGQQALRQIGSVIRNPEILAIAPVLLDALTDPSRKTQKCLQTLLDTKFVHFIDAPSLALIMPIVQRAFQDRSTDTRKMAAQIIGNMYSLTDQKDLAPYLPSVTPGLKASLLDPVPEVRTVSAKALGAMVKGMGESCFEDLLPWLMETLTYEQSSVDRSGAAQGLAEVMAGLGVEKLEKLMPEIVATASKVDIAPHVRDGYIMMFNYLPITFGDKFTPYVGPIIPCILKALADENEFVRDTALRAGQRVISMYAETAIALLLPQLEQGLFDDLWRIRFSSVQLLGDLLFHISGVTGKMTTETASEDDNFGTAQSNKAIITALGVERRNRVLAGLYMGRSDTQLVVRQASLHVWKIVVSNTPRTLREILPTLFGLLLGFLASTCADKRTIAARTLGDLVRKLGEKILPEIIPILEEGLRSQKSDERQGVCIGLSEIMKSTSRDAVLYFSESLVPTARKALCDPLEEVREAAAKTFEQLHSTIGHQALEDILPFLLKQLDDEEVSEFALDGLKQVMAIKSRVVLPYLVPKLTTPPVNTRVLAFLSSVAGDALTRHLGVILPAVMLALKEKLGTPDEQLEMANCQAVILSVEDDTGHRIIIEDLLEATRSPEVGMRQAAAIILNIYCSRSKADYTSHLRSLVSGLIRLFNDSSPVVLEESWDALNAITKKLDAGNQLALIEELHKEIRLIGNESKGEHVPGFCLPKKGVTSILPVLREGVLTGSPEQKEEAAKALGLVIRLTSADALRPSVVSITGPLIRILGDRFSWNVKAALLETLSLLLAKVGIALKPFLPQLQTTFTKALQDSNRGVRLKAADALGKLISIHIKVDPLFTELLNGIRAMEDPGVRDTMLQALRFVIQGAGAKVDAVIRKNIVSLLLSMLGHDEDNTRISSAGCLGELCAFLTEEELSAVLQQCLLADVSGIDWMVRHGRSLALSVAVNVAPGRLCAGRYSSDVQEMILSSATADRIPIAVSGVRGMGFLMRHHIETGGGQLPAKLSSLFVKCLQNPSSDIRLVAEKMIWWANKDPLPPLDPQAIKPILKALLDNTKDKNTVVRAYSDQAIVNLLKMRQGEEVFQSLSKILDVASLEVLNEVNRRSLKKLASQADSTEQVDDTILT
Chain of Alpha-1-antitrypsin precursor/Serpin peptidase inhibitor, clade A, member 1 (human) (P01009 25-418 limits assumed): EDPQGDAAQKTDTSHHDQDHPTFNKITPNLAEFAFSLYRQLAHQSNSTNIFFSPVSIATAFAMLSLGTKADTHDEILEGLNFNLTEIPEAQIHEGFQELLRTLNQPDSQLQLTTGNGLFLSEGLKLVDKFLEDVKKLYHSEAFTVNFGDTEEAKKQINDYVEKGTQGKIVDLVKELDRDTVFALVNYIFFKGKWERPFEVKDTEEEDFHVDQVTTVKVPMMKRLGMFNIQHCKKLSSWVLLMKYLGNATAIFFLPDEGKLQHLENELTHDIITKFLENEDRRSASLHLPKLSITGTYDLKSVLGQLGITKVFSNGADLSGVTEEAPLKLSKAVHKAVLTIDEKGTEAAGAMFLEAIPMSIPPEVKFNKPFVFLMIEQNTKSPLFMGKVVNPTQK
Chain of Immunoglobulin lambda variable 3-25/V2-17 protein (Fragment) (human) (P01717 20-112 limits assumed): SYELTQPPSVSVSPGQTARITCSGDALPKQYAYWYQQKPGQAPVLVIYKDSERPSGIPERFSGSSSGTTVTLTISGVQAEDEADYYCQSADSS
Chain of Ig lambda chain V-III region SH (human) (P01714 21-112 limits assumed): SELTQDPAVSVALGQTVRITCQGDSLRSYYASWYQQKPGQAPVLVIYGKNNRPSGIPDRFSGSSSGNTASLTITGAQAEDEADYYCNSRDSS
Chain of Neutrophil defensin 1 precursor (human) (P59665 65-94 limits assumed): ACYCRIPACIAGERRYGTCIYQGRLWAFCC

Work on “recombinant human BiP with C-terminal linker, FLAG-tag and His-tag (BiP-FLAG-His) (from UniProt P11021 19-654)” yielded a # of peptides [1] of 31 peptides, a # of unique peptides [2] of 1 peptides and a # of unique peptides [3] of 1 peptides. The # of unique peptides [4] was 1 peptides, the # of unique peptides [5] was 1 peptides and the # of unique peptides [6] was 17 peptides. It also gave a # of unique peptides [7] of 12 peptides, a # of unique peptides [8] of 19 peptides and a # of peptides [9] of 5 peptides. For the same substance, the # of peptides [10] was 10 peptides, the # of peptides [11] was 1 peptides and the # of peptides [12] was 2 peptides. The # of peptides [13] was 4 peptides, the # of peptides [14] was 1 peptides and the # of peptides [15] was 7 peptides. The # of peptides [16] was 2 peptides, the # of peptides [17] was 9 peptides and the # of peptides [18] was 2 peptides. For the same substance, the # of peptides [19] was 14 peptides, the # of peptides [20] was 2 peptides and the # of peptides [21] was 2 peptides. The # of peptides [22] was 1 peptides, the # of peptides [23] was 2 peptides and the # of unique peptides [24] was 10 peptides. The # of unique peptides [25] was 1 peptides, the # of unique peptides [26] was 1 peptides and the # of peptides [27] was 2 peptides.

— US20100015126A1, “Methods of Binding of Cross-Beta Structures By Chaperones” (priority 2006, published 2010)
